Experiment in all cases: IEDB peptide-MHC binding, purified MHC/competitive/radioactivity; filed as Kd, often an IC50 or EC50 that approximates it; ≥ and ≤ were set here for values at or beyond the usual limits of such assays
Assay [1] concerns the target HLA-A*02:06.
For assay [2], the target named is HLA-A*02:03.
Assay [3] has as its target HLA-A*02:02.
The target of assay [4] is HLA-A*11:01.
Assay [5] deals with HLA-A*68:01.
Assay [6] concerns the target HLA-A*03:01.
In assay [7] the target is HLA-A*31:01.
Assay [8] addresses HLA-A*33:01.
Where [9] appears, read: source organism: Vaccinia virus WR.
The mark [10] stands for this setting: source organism: SARS coronavirus Tor2.
Setting [11] is: source organism: Dengue virus 1 Brazil/97-11/1997.
Where [12] appears, read: source organism: Dengue virus 2 Jamaica/1409/1983.
Where [13] appears, read: source organism: Dengue virus 4 Philippines/H241/1956.
Where [14] appears, read: source organism: Dengue virus 3 Martinique/1243/1999.

With AAITLVVISV, the Kd in assay [1] (setting [9]) was found to be 26.8 nM; in assay [2] (setting [9]), 246 nM; in assay [3] (setting [9]), 501 nM.

Turning to ALAEHISDSI, the results for the Kd in assay [1] (setting [9]), in assay [2] (setting [9]) and in assay [3] (setting [9]) were 163 nM, 0.34 nM and 0.198 nM, respectively.

For ALKAYFTAKI, the equilibrium dissociation constant (Kd) in assay [1] (setting [9]) is 2780 nM; in assay [2] (setting [9]), 77 nM; in assay [3] (setting [9]) it was 194 nM.

As to ALLFLMSFTI, the values for the Kd in assay [1] (setting [10]), in assay [2] (setting [10]) and in assay [3] (setting [10]) were 14.4 nM, 199 nM and 0.365 nM, respectively.

CAVIPFDDI: the Kd was 1160 nM in assay [1] (setting [9]), not below 10000 nM in assay [2] (setting [9]) and 15800 nM in assay [3] (setting [9]).

For the sequence CIVAAVIIM, the figures for the equilibrium dissociation constant (Kd) in assay [1] (setting [9]), in assay [2] (setting [9]) and in assay [3] (setting [9]) were not below 32600 nM, 1420 nM and 14300 nM, respectively.

Consider CTNDIYCDEI, for which the results for the Kd in assay [1] (setting [9]), in assay [2] (setting [9]) and in assay [3] (setting [9]) were 4760 nM, 5720 nM and 2460 nM, respectively.

Turning to DAKRNSKSL, the dissociation constant (Kd) in assay [1] (setting [9]) was not below 77100 nM; in assay [2] (setting [9]) it was not below 49700 nM; in assay [3] (setting [9]) it was 13700 nM.

In the case of DAMIHKTYI, the dissociation constant (Kd) in assay [1] (setting [9]) came to 9570 nM; in assay [2] (setting [9]) it was 1520 nM; in assay [3] (setting [9]), 5420 nM.

Take DTIAHINTL: the values for the Kd in assay [1] (setting [9]), in assay [2] (setting [9]) and in assay [3] (setting [9]) were 11200 nM, 233 nM and 747 nM, respectively.

With DVEKEKFVAT, the Kd in assay [1] (setting [9]) is not below 69200 nM; in assay [2] (setting [9]) it was not below 54800 nM; in assay [3] (setting [9]), not below 37500 nM.

Turning to FQDGVFHTM, the dissociation constant (Kd) in assay [1] (setting [11]) was found to be 13.8 nM.

As for GLFGKGSLI, in assay [2] (source organism: Dengue virus 1 Nauru/West Pac/1974), the Kd is 13 nM.

GLFKTNTGTI: in assay [2] (setting [12]), the Kd worked out at 45.8 nM.

Turning to GLSSRATWA, the Kd in assay [2] (setting [13]) was 36.9 nM.

As for GMVTLYLGV, the Kd in assay [2] (setting [11]) was 12.4 nM.

Turning to IMKDGRVLVV, in assay [2] (source organism: Dengue virus 2 16681-PDK53), the equilibrium dissociation constant (Kd) came out at 6.09 nM.

On to KQIANELNYI, for which the Kd in assay [1] (setting [14]) came to 32.5 nM.

As to KTLTGEIGAV, the dissociation constant Kd in assay [1] (setting [13]) is 30.7 nM.

For LLMLVTPSMT, the Kd in assay [2] (setting [14]) was determined as 169 nM.

LQWIASAIV: the dissociation constant (Kd) in assay [1] (setting [14]) is 3.72 nM.

On to MAILCVPNAV, for which the Kd in assay [1] (setting [12]) is 5.35 nM.

Regarding PLNEGIMAI, the equilibrium dissociation constant (Kd) in assay [2] (setting [11]) is 63.8 nM.

For RLISMMGFK, the dissociation constant (Kd) in assay [4] (setting [10]) is 22.2 nM; in assay [5] (setting [10]), 716 nM; in assay [6] (setting [10]), 3.18 nM; in assay [7] (setting [10]), 104 nM; in assay [8] (setting [10]) it was not below 77700 nM.

With RQTVSRFKK, the dissociation constant (Kd) stood at 40.7 nM in assay [4] (setting [9]); 4630 nM in assay [5] (setting [9]); 39.7 nM in assay [6] (setting [9]); 13.1 nM in assay [7] (setting [9]); 6560 nM in assay [8] (setting [9]).

Turning to SAKQLRTRIR, the Kd was not below 45500 nM in assay [4] (setting [9]); not below 28800 nM in assay [5] (setting [9]); not below 70100 nM in assay [6] (setting [9]); 1100 nM in assay [7] (setting [9]); 17300 nM in assay [8] (setting [9]).

On to SASAFFGMSR, for which the dissociation constant (Kd) in assay [4] (setting [10]) worked out at 11.9 nM; in assay [5] (setting [10]), 10 nM; in assay [6] (setting [10]), 966 nM; in assay [7] (setting [10]) it was 9.48 nM; in assay [8] (setting [10]) it was 121 nM.

As for SIFPANINDK, the Kd was 7.48 nM in assay [4] (setting [9]); 121 nM in assay [5] (setting [9]); 1220 nM in assay [6] (setting [9]); not below 70000 nM in assay [7] (setting [9]); not below 46000 nM in assay [8] (setting [9]).

In the case of SLIGSKTQI, the figures for the dissociation constant (Kd) in assay [1] (source organism: Homo sapiens) and in assay [2] (source organism: Homo sapiens) were 10600 nM and 23.8 nM, respectively.

On to SLRCGACIRR, for which the Kd in assay [4] (setting [10]) stood at 963 nM; in assay [5] (setting [10]) it was 915 nM; in assay [6] (setting [10]), 265 nM; in assay [7] (setting [10]), 16.3 nM; in assay [8] (setting [10]) it was 89.5 nM.

As to SMNVAVIDK, the equilibrium dissociation constant (Kd) in assay [4] (setting [9]) is 0.278 nM; in assay [5] (setting [9]), 4880 nM; in assay [6] (setting [9]) it was not below 67700 nM; in assay [7] (setting [9]) it was 612 nM; in assay [8] (setting [9]), 7080 nM.

With SQASSRSSSR, the dissociation constant (Kd) in assay [4] (setting [10]) is 1530 nM; in assay [5] (setting [10]), 400 nM; in assay [6] (setting [10]) it was 7970 nM; in assay [7] (setting [10]), 470 nM; in assay [8] (setting [10]), 1320 nM.

Values taken from the Immune Epitope Database (IEDB).
